Experimental data taken from the DeepSol protein solubility set.

Assay: soluble on expression in E. coli; label from the status in PepcDB or PDB records

| Sequence | soluble on expression in E. coli |
| --- | --- |
| ADLPGKGITVNPVQSTITEETFQTLLVSRALEKLGYTVNKPSEVDYNVGYTSLASGDATFTAVNWTPLHDNMYEAAGGDKKFYREGVFVNGAAQGYLIDKKTADQYKITNIAQLKDPKIAKLFDTNGDGKADLTGCNPGWGCEGAINHQLAAYELTNTVTHNQGNYAAMMADTISRYKEGKPVFYYTWTPYWVSNELKPGKDVVWLQVPFSALPGDKNADTKLPNGANYGFPVSTMHIVANKAWAEKNPAAAKLFAIMQLPVADINAQNAIMHDGKASEGDIQGHVDGWIKAHQQQFDGWVNEALAAQK | soluble |
| MGSDKIHHHHHHMKIAVLSGKGGTGKTLVAVNLAAAAQRSTYIDCDVEEPNGHLFFKPEILQEEEITVKIPRVEDTLCQGCRRCVDFCQFNALAYIKEKLLVFEDVCHSCGGCILLCPEKALTEQEKGIGKVQKGLSDQVRVYTGVLNIGEVSGVPIIKKLLNENKSDKNEPESDQLTFIDCPPGSACSVMESIKDADYCLLVAEPTLFGVHNLNMVHELVKIFNKPCGVVLNKSLEGENPAETFCLEKNIKILSRLPFDHELGRLNSNAEIAVRKSEPYKALFSALLETVTKEVQHETAAYS | not soluble |
| MGSDKIHHHHHHASTKVAKSKAKGKVIVYYVYGKRGHTGKYLWSKKTLTGKIGTTYHTKALDLLNDSGYMALASHSKNTSGKFTRKTTKVYYRYYDVIERDYEFKHEADLYMELTGDHRIGLFDRNLQDGVEVVVERTNFSKPYYDVSYSNRVDTGHGSGLKEFHYRFGSTHRFKDNRDGNIYTMALTNSGGITFHAVATKHSTMNELVQVSAHGKLLTAKIRK | not soluble |
| MVEKEIDYLCSQYGLKPTNLSKFTLKLNFPDPDLKYGFSGEDNSLYLPLYHELNVSSSLPGEMFCMVYIQLILDPDKVNSEYLADFFNNPLGLKIRKGWEARGFVLRPETRNSEEVQESQQTSALNNPALLSGKSGFSGISYPVTGETSSENGDSIYSICQGSDGMTYVLPDSASPVPEILSFPDLDLESLMHSKLYLPDLQVQLEILKIKALTKELISQLNIFECRLSTYPKSMSHIRRKLELIREAVKLANDSDYILELIRRGESKRLEFKSTLRMNLMTGKPDWNIQHAVLKTIVAYLNTDGGILLVGVSNDGEILGIKNDGFPNEDRFLLHFKQLIKQHIGLNYSPMIEYTLVPVNGKEVLEIACKKSDEAVFLKTDKNDEEFYIRTGPSSERLTGSKLIEYVNRRYNGKSDAAALEHHHHHH | soluble |
| MSLLSSEGPIFYVQERIGQNYKPFNCIKFRTMVSNADEVLMQMMETSPQLRQEFESSFKLKKDPRITKIGQFLRITSLDEFPQFWNVLKGDMSVVGPRPLVAEELPKYGDHIEQVLTIRPGITGLWQVSGRNDIPYPRRVQIDLHYVKSRTLWLDLWIILKTIDVVIMPKNNGAYEGHHHHHH | soluble |
| MEDLEEDVRFIVDETLDFGGLSPSDSREEEDITVLVTPEKPLRRGLSHRSDPNAVAPAPQGVRLSLGPLSPEKLEEILDEANRLAAQLEQCALQDRESAGEGLGPRRVKPSPRRETFVLKDSPVRDLLPTVNSLTRSTPSPSSLTPRLRSNDRKGSVRALRATSGKRPSNMKRESPTCNLFPASKSPASSPLTRSTPPVRGRAGPSGRAAASPPTPIRSVLAPQPSTSNSQRLPRPQGAAAKSSSQLPIPSAIPRPASRMPLTSRSVPPGRGALPPDSLSTRKGLPRPSTAGHRVRESGHKVPVSQRLNLPVMGATRSNLQPPRKVAVPGPTR | soluble |
| MGSDKIHHHHHHLIPVLDTDAWVEKLLSTRRSAEGKILAFYEHRMEAICRDPRLLLMPADDHLAHRGDGVFESMKFEGRRLYQLDAHLERMERSARGIYLTPPCTQSVLRDIVLQVARAADTPDGCIRILLGRGPGGFGIDPAECPVPSLYVVAYSLTPKPEEWYEKGVTAFRTSIPAKQGYLATIKNANYIPNVLMKLEARSRGCDIPVSFDENDFIAEGPTENLCLVDADGTLVVPEFTNALSGTTIMRVIDLVRDEMNVAFRKVREDELYRAAEVMVLGTTTECVSVVSFEGQPVGGGRPGPVARRFRELLRRDLAENGISF | not soluble |
| MSNNNTSIHDFDFSFICNYFKLLKRQGPGSPEATRKAVSFINELTDDAKIADIGCGTGGQTLFLADYVKGQITGIDLFPDFIEIFNENAVKANCADRVKGITGSMDNLPFQNEELDLIWSEGAIYNIGFERGMNEWSKYLKKGGFIAVSEASWFTSERPAEIEDFWMDAYPEISVIPTCIDKMERAGYTPTAHFILPENCWTEHYFAPQDEVRETFMKEHAGNKTAMDFMKGQQYERSLYSKYKDYYGYVFYIGQKRLEHHHHHH | soluble |
| MLPLSSVELTDIKTDDLDIKWDNVQQFKLGDGSYADVFHVFYKGHDAVLKRSIKEYTDKERENIRREARVVAALNNCENVVRIYGICETLPFRGMIMEYCAGPNLSELVFQLDECKVKFETLRIFKWCHDLTRTLCELNVTYYHGDVKAKNVLVKERPCCCVEGIYENVKIRNTTYSLCTICNGVHLEHLSLKICDFGMSYEHKDKRLYNGGTREFSAPETIRGIYTEKSEVYSFGHLMLVLVIGGPTEDDCAVGQRAFLKMYNNKKYDMSGCKSNSICETIEWCLNNTQESRPTFKQLLSKLNSRHTHYLSLRGTDTRRLEANNEREEFLDHYRIPRKISVHRRTTTTSTCISLSETSGSNQDISVTSAAYLGGPIVNQMFIADTPLASPSASRKFRNDGFEKTNYVENQLYTGDETRKPFLTGGISHPGYSVMRKNSVWKFFVQARNSIRSKITKLVRKRK | not soluble |
| IVGGYTCQENSVPYQVSLNSGYHFCGGSLINDQWVVSAAHCYKSRIQVRLGEHNINVLEGDEQFVNAAKIIKHPNFDRKTLNNNIMLIKLSSPVKLNARVATVALPSSCAPAGTQCLISGWGNTLSSGVNEPDLLQCLDAPLLPQADCEASYPGKITDNMVCVGFLEGGKDSCQGDSGGPVVCNGELQGIVSWGYGCALPDNPGVYTKVCNYVDWIQDTIAAN | soluble |
| MILSSYNTIQSVFCCCCCCSVQKRQMRTQISLSTDEELPEKYTQHRRPWLSQLSNKKQSNTGRVQPSKRKPLPPLPPSEVAEEKIQVKALYDFLPREPCNLALRRAEEYLILEKYNPHWWKARDRLGNEGLIPSNYVTENKITNLEIYEWYHRNITRNQAEHLLRQESKEGAFIVRDSRHLGSYTISVFMGARRSTEAAIKHYQIKKNDSGQWYVAERHAFQSIPELIWYHQHNAAGLMTRLRYPVGLMGSCLPATAGFSYGKVCTHAEVK | soluble |
| GPGSMSKQKKEVVINLDEVDEQTGYKSAELFVWLKFDETYLQKPEDDREADVDAWVDAFCEQMEEEGMNYDRNFVRSVCVLGIYAGARDEFQQRMGSGKAVYPNGDRYDGEFFEGKKHGTGRYCFVSRGKSECDRIVEKEMQKLGGAVPDEQFITNVAEKYKISRQIVSWIIEYGVYPCYHGDYVRGVRTGQGLMKNKDGTVYKGDFLANKRHGQGMFYYLNGDIFSGTWRNGLKHGYGTYHFAGGSEYRGSWVDGVFTQGQWIFPDGTYYEGLFNKKNRPCDDAASMHFPSIKMAQTGVFRRGVWAPSSALQVCEETPVDGMSWID | soluble |
| MKKVRKLYEGKAKIVYETDEKDKLILEFKDVATAFDGVKKEEIKGKGSLNNEISSLIFEILEDHGIKTHYIKKLSDREMLVWRAERFPVEVVVRNYAAGSFVKRYGVKEGTKLEQPLVEFFMKSDELHDPMVCINHIKVLKLAPAELVPEMEKIALKVNEILKKIFEEKGILLVDFKLEFGRLPSGELAIVDEISPDSMRLWDKSTGENWIKTDSV | soluble |
| MEHDERTHVPVELRAAGVVLLNERGDILLVQEKGIPGHPEKAGLWHIPSGAVEDGENPQDAAVREACEETGLRVRPVKFLGAYLGRFPDGVLILRHVWLAEPEPGQTLAPAFTDEIAEASFVSREDFAQLYAAGQIRMYQTKLFYADALREKGFPALPV | soluble |
| MEKVMKCHRVEELLQLLEPEWHKDSELNLIQFLLKLAQEAGYQGALEDLTDDVLIYHLKMRNSAKDAVIPGLKKDYEDDFKTAILRARGIIK | not soluble |
| MSLSKKRAGAMKNYGAGDQFKATKALTFTILHNDMPTYPMKRDWLFWKEVTERTGVTLKPTSVPASDYDKKRSLLIGAGDAPLLIPKTYPGQETAFVSSGAILPVSEYVRLMPNFRAKVEKWGLEGDLDSIRQADGNYYVLPGLHEKVKSGYSLSFRTDVLKKHGLDLPTTWDQVYDVLKALKAAYPDVYPFSDRWGQPTPGGALLNYLGPAFGTKAGWSYANTAWDTKARKYVFTGATDEYRQMLEYLRKLVAEKLMDPESFTQSDDDAVRKLLSGKSFVISANPQELVQNYRYNLGKQVKGATIEMIPVPIGPTGEVIVGSRLENGLMVAGRAAEGDSFVAMMQFVDWLWYSDGGQEFAKYGVEGVTYTSSGAGRYKVADGISYMGSDPSAPKDLQKDYGFTNGEFAYGGSWALVSSSFSPDEKAFQDAMAGRKLLPVDPAHPLKADEQEQATLWDTPLKDHVTQNTLKFALGKRPMSEWDAYLAELKAKNMQRYIDLHNTAYERFKKEHEGHHHHHH | soluble |
| MSKQAFQKIYTKITNITKATCSLRATGVGNEELATIDGRLAQVVRIQGEDVTLQVFAGTEGIPTDAEVIFMGKAPSLKVGDQLAGRFFNAYGEPIDGGPQPEGKEVEIGGPSVNPVRRKQPSELIATGIAGIDLNNTLVTGQKIPFFADPDQPFNQVMAMVALRAESDKIILGGMGMTNDDYLFFKNTFSNAGALDRIVSFINTTEDPSVERILVPDMALAAAEYFAVEKHEKVLVLLTDMTNYADALAIVSNRMDQIPSKDSMPGSLYSDLAKIYEKAVQFPDGGSITIIAVTTLSGGDITHAVPDNTGYITEGQLYLRRDSNVGKVIVDPFRSLSRLKQLVIGKKTREDHPQVMNAAVRLFSDAANAQTKMENGFDLTDYDNRALEFANDYSRQLLAIDVNVNTTEMLDTAWELFSKHFKPAEVNIKQQLVDTYWKK | not soluble |
| MGSDKIHHHHHHMSKIKVALLVDEYFGGAKTKYGGYGFLARHLVAKHLPDDQVDVDVLLKKDCGKVRLWPKCFMVDGIRVYKLAARAFDWVNNLFLRQKNYDVFLSIEMTTHSYRIFSKAPGKNKKLLFWIQDPRPTYEWDEIQTVKLFPEPSYWDAEIYDFVNQYARSGNVRFISQAKCLDQKARDLYRLPANTSINYLPNPIEIDETFDLDSFPKQNSIIFLGRIESVKRGWLFAEIAKAMPQCQFYMLGQAHRQADENNAVMSGYQAIPNLHFVGHVEGEQKNRFLKEAKVLVNTSIHEALPISFLEALSYGTLLVSCQNPDELASKFGVYTGKVLGDGFDKVELFVAGINQLLTNDDHRHQLAKDAIAYIKEVHSLSRFTGDIKHELLTLCASRNEPVKATGRTTTSTVQ | not soluble |
| MGSDKIHHHHHHVMKVLLYSEGKKLFSKSGVGIALKHQMSALDKVGVKYTTNEEDSFDIVHINTIGPGAERVIKKSKKLGIPIIYHTHTTYEDFRNSFTLSNAIAPWLRKRLIKLYSSADFLISPTEYAKKLIMNYGITLPIKAVSNGVDNKKFTRSKSLAESFLSENHIRKPLVVSVGLPFERKGVIDFCQIADTRKDLTFYWFGAKISSLLPAKIRRLLKNPPDNVKFPGFIPQEMIIGPYSACDVFLFPSYEETEGIVVLEALATEAPIVLRDIPVYSEWMKHEENCLKGKDNQEFIKHIDRLLESNNLRKKLSSCGKETALERDLSIIGQKLKNIYLEVLDKKQ | not soluble |
| MKIAVLGATGRAGSAIVAEARRRGHEVLAVVRDPQKAADRLGATVATLVKEPLVLTEADLDSVDAVVDALSVPWGSGRGYLHLDFATHLVSLLRNSDTLAVFILGSASLAMPGADHPMILDFPESAASQPWYDGALYQYYEYQFLQMNANVNWIGISPSEAFPSGPATSYVAGKDTLLVGEDGQSHITTGNMALAILDQLEHPTAIRDRIVVRLEHHHHHH | not soluble |
